# T1: PAPSS1p.Q144H peptide on HLA-C*07:02 (human)
# T1 peptide: ARHIHEGASL
# T2: WDFY3p.L512H peptide on HLA-A*11:01 (human)
# T2 peptide: VMVNHLHKY
# T3: PRCCp.V145L peptide on HLA-C*07:01 (human)
# T3 peptide: KRKEPLKI
# T4: BRPF1p.L634F peptide on HLA-A*24:02 (human)
# T4 peptide: EMQLTPFFI
# T5: MED12Lp.T462K peptide on HLA-C*07:02 (human)
# T5 peptide: SRVLHKLEV
# T6: SDK1p.S1290L peptide on HLA-A*02:01 (human)
# T6 peptide: SLTQILLTWT
# T7: MAN2A2p.R877W peptide on HLA-C*04:01 (human)
# T7 peptide: IWDYVNKELA
# T8: CDADC1p.R148Q peptide on HLA-A*24:02 (human)
# T8 peptide: AGVNQISYW
# T9: FCGRTp.A241T peptide on HLA-C*06:02 (human)
# T9 peptide: LRFLRNGLT
# T10: RASA3p.A654V peptide on HLA-A*02:01 (human)
# T10 peptide: FQVIQPERV
# T11: ACEp.V535G peptide on HLA-B*57:01 (human)
# T11 peptide: VSFGLQFQF
# T12: USP34p.S2706F peptide on HLA-C*07:02 (human)
# T12 peptide: FRSTRFLHI
# T13: KBTBD3p.T293A peptide on HLA-B*35:01 (human)
# T13 peptide: RPSTAEKYIF
# T14: ETNK1p.Q233L peptide on HLA-C*07:01 (human)
# T14 peptide: FRLIARLL
# Experiments:
# Assay in all cases: activation reporter or marker
# [1] = target: T1, PAPSS1p.Q144H peptide on HLA-C*07:02
# [2] = target: T2, WDFY3p.L512H peptide on HLA-A*11:01
# [3] = target: T3, PRCCp.V145L peptide on HLA-C*07:01
# [4] = target: T4, BRPF1p.L634F peptide on HLA-A*24:02
# [5] = target: T5, MED12Lp.T462K peptide on HLA-C*07:02
# [6] = target: T6, SDK1p.S1290L peptide on HLA-A*02:01
# [7] = target: T7, MAN2A2p.R877W peptide on HLA-C*04:01
# [8] = target: T8, CDADC1p.R148Q peptide on HLA-A*24:02
# [9] = target: T9, FCGRTp.A241T peptide on HLA-C*06:02
# [10] = target: T10, RASA3p.A654V peptide on HLA-A*02:01
# [11] = target: T11, ACEp.V535G peptide on HLA-B*57:01
# [12] = target: T12, USP34p.S2706F peptide on HLA-C*07:02
# [13] = target: T13, KBTBD3p.T293A peptide on HLA-B*35:01
# [14] = target: T14, ETNK1p.Q233L peptide on HLA-C*07:01
binder,measurement,setting,value
"TCR952 (TCR, V domains shown) Valpha: SQQGEEDPQALSIQEGENATMNCSYKTSINNLQWYRQNSGRGLVHLILIRSNEREKHSGRLRVTLDTSKKSSSLLITASRAADTASYFCATDEVGDMRFGAGTRLTVKP Vbeta: EPEVTQTPSHQVTQMGQEVILRCVPISNHLYFYWYRQILGQKVEFLVSFYNNEISEKSEIFDDQFSVERPDGSNFTLKIRSTKLEDSAMYFCAISGSLYNEQFFGPGTRLTVL",binding result,[1],recognises
"TCR720 (TCR, V domains shown) Valpha: LAKTTQPISMDSYEGQEVNITCSHNNIATNDYITWYQQFPSQGPRFIIQGYKTKVTNEVASLFIPADRKSSTLSLPRVSLSDTAVYYCLVIEAGNNRKLIWGLGTSLAVNP Vbeta: not shown",binding result,[2],recognises
"TCR775 (TCR, V domains shown) Valpha: GQNIDQPTEMTATEGAIVQINCTYQTSGFNGLFWYQQHAGEAPTFLSYNVLDGLEEKGRFSSFLSRSKGYSYLLLKELQMKDSASYLCAAHSGGYQKVTFGTGTKLQVIP Vbeta: EPEVTQTPSHQVTQMGQEVILRCVPISNHLYFYWYRQILGQKVEFLVSFYNNEISEKSEIFDDQFSVERPDGSNFTLKIRSTKLEDSAMYFCASSEDEQEYSYEQYFGPGTRLTVT",binding result,[3],recognises
"TCR955 (TCR, V domains shown) Valpha: AQTVTQSQPEMSVQEAETVTLSCTYDTSESDYYLFWYKQPPSRQMILVIRQEAYKQQNATENRFSVNFQKAAKSFSLKISDSQLGDAAMYFCAYRRRNSGYALNFGKGTSLLVTP Vbeta: DAGVTQSPTHLIKTRGQQVTLRCSPKSGHDTVSWYQQALGQGPQFIFQYYEEEERQRGNFPDRFSGHQFPNYSSELNVNALLLGDSALYLCASSLRVWSSYEQYFGPGTRLTVT",binding result,[4],recognises
"TCR915 (TCR, V domains shown) Valpha: AQKVTQAQTEISVVEKEDVTLDCVYETRDTTYYLFWYKQPPSGELVFLIRRNSFDEQNEISGRYSWNFQKSTSSFNFTITASQVVDSAVYFCALSDHNTDKLIFGTGTRLQVFP Vbeta: NAGVTQTPKFRILKIGQSMTLQCTQDMNHNYMYWYRQDPGMGLKLIYYSVGAGITDKGEVPNGYNVSRSTTEDFPLRLELAAPSQTSVYFCASISDSYNEQFFGPGTRLTVL",binding result,[5],recognises
"TCR1036 (TCR, V domains shown) Valpha: RKEVEQDPGPFNVPEGATVAFNCTYSNSASQSFFWYRQDCRKEPKLLMSVYSSGNEDGRFTAQLNRASQYISLLIRDSKLSDSATYLCVVNMYNQGGKLIFGQGTELSVKP Vbeta: NAGVTQTPKFQVLKTGQSMTLQCAQDMNHEYMSWYRQDPGMGLRLIHYSVGAGITDQGEVPNGYNVSRSTTEDFPLRLLSAAPSQTSVYFCASSYSGPNYEQYFGPGTRLTVT",binding result,[6],recognises
"TCR721 (TCR, V domains shown) Valpha: AQKVTQAQTEISVVEKEDVTLDCVYETRDTTYYLFWYKQPPSGELVFLIRRNSFDEQNEISGRYSWNFQKSTSSFNFTITASQVVDSAVYFCALSEATGFGNEKLTFGTGTRLTIIP Vbeta: DAGITQSPRHKVTETGTPVTLRCHQTENHRYMYWYRQDPGHGLRLIHYSYGVKDTDKGEVSDGYSVSRSKTEDFLLTLESATSSQTSVYFCAISDPRDSYEQYFGPGTRLTVT",binding result,[7],recognises
"TCR1057 (TCR, V domains shown) Valpha: GENVEQHPSTLSVQEGDSAVIKCTYSDSASNYFPWYKQELGKRPQLIIDIRSNVGEKKDQRIAVTLNKTAKHFSLHITETQPEDSAVYFCAASRGPAGGTSYGKLTFGQGTILTVHP Vbeta: DTEVTQTPKHLVMGMTNKKSLKCEQHMGHRAMYWYKQKAKKPPELMFVYSYEKLSINESVPSRFSPECPNSSLLNLHLHALQPEDSALYLCASSQDAWWLSQPQHFGDGTRLSIL",binding result,[8],recognises
"TCR1059 (TCR, V domains shown) Valpha: SQQGEEDPQALSIQEGENATMNCSYKTSINNLQWYRQNSGRGLVHLILIRSNEREKHSGRLRVTLDTSKKSSSLLITASRAADTASYFCATDEGNFVFGPGTRLSVLP Vbeta: NAGVTQTPKFQVLKTGQSMTLQCAQDMNHEYMSWYRQDPGMGLRLIHYSVGAGITDQGEVPNGYNVSRSTTEDFPLRLLSAAPSQTSVYFCASSPGQRETQYFGPGTRLLVL",binding result,[9],recognises
"TCR1312 (TCR, V domains shown) Valpha: QKEVEQNSGPLSVPEGAIASLNCTYSDRGSQSFFWYRQYSGKSPELIMFIYSNGDKEDGRFTAQLNKASQYVSLLIRDSQPSDSATYLCAVNRAGGSYIPTFGRGTSLIVHP Vbeta: DAGVIQSPRHEVTEMGQEVTLRCKPISGHDYLFWYRQTMMRGLELLIYFNNNVPIDDSGMPEDRFSAKMPNASFSTLKIQPSEPRDSAVYFCASSQGQGVLGMKKLFFGSGTQLSVL",binding result,[10],recognises
"TCR901 (TCR, V domains shown) Valpha: QKEVEQDPGPLSVPEGAIVSLNCTYSNSAFQYFMWYRQYSRKGPELLMYTYSSGNKEDGRFTAQVDKSSKYISLFIRDSQPSDSATYLCAMTRGGGGNKLTFGTGTQLKVEL Vbeta: NAGVTQTPKFRVLKTGQSMTLLCAQDMNHEYMYWYRQDPGMGLRLIHYSVGEGTTAKGEVPDGYNVSRLKKQNFLLGLESAAPSQTSVYFCASSYGGPEQFFGPGTRLTVL",binding result,[11],recognises
"TCR903 (TCR, V domains shown) Valpha: AQKVTQAQTEISVVEKEDVTLDCVYETRDTTYYLFWYKQPPSGELVFLIRRNSFDEQNEISGRYSWNFQKSTSSFNFTITASQVVDSAVYFCALSEETDRGSTLGRLYFGRGTQLTVWP Vbeta: DTAVSQTPKYLVTQMGNDKSIKCEQNLGHDTMYWYKQDSKKFLKIMFSYNNKELIINETVPNRFSPKSPDKAHLNLHINSLELGDSAVYFCASSQDGGFEQFFGPGTRLTVL",binding result,[12],recognises
"TCR1364 (TCR, V domains shown) Valpha: GQNIDQPTEMTATEGAIVQINCTYQTSGFNGLFWYQQHAGEAPTFLSYNVLDGLEEKGRFSSFLSRSKGYSYLLLKELQMKDSASYLCAVKGDYKLSFGAGTTVTVRA Vbeta: DTGVSQNPRHKITKRGQNVTFRCDPISEHNRLYWYRQTLGQGPEFLTYFQNEAQLEKSRLLSDRFSAERPKGSFSTLEIQRTEQGDSAMYLCASSDRSYNEQFFGPGTRLTVL",binding result,[13],recognises
"TCR1285 (TCR, V domains shown) Valpha: DAKTTQPPSMDCAEGRAANLPCNHSTISGNEYVYWYRQIHSQGPQYIIHGLKNNETNEMASLIITEDRKSSTLILPHATLRDTAVYYCIVRLAPYSGNTPLVFGKGTRLSVIA Vbeta: DAGVTQSPTHLIKTRGQQVTLRCSPKSGHDTVSWYQQALGQGPQFIFQYYEEEERQRGNFPDRFSGHQFPNYSSELNVNALLLGDSALYLCASISGFMGLMNTEAFFGQGTRLTVV",binding result,[14],recognises

# From publication PMC9768791 (2022)
